We go through 15 molecules from paper PMC11419269 (Research Square, 2024).

As usually defined, the Kd is the free concentration of one partner at which half of the binding sites on the other are occupied at equilibrium, for simple one-to-one binding. A high value points to weaker binding.

T1: Human IL-34 (19–241) (human, UniProt Q6ZMJ4 19-241)
T1 construct: IL-34, human, residues 19-241, cloned into pHLsec; the oligomeric state was not measured here; source: Expi293F cells, secreted, purified from the media using NiNTA chromatography
T1 sequence (looked up): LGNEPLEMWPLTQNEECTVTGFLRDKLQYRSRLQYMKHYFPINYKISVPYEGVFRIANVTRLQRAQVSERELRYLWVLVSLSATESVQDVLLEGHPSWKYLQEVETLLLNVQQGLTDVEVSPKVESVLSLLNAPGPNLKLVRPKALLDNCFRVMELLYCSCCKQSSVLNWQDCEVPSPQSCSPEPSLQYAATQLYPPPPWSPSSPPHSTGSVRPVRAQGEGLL

B1: TREM2 R76D (receptor)
chain: HNTTVFQGVAGQSLQVSCPYDSMKHWGRRKAWCRQLGEKGPCQRVVSTHNLWLLSFLDRWNGSTAITDDTLGGTLTITLRNLQPHDAGLYQCQSLHGSEADTLRKVLVEVLADPLD
modifications: biotin on the C-terminal BirA biotinylation sequence
B2: TREM2 T85D (receptor)
chain: HNTTVFQGVAGQSLQVSCPYDSMKHWGRRKAWCRQLGEKGPCQRVVSTHNLWLLSFLRRWNGSTAIDDDTLGGTLTITLRNLQPHDAGLYQCQSLHGSEADTLRKVLVEVLADPLD
modifications: biotin on the C-terminal BirA biotinylation sequence
B3: TREM2 L75D (receptor)
chain: HNTTVFQGVAGQSLQVSCPYDSMKHWGRRKAWCRQLGEKGPCQRVVSTHNLWLLSFDRRWNGSTAITDDTLGGTLTITLRNLQPHDAGLYQCQSLHGSEADTLRKVLVEVLADPLD
modifications: biotin on the C-terminal BirA biotinylation sequence
B4: TREM2 R122D/K123D (receptor)
chain: HNTTVFQGVAGQSLQVSCPYDSMKHWGRRKAWCRQLGEKGPCQRVVSTHNLWLLSFLRRWNGSTAITDDTLGGTLTITLRNLQPHDAGLYQCQSLHGSEADTLDDVLVEVLADPLD
modifications: biotin on the C-terminal BirA biotinylation sequence
B5: TREM2 R77D (receptor)
chain: HNTTVFQGVAGQSLQVSCPYDSMKHWGRRKAWCRQLGEKGPCQRVVSTHNLWLLSFLRDWNGSTAITDDTLGGTLTITLRNLQPHDAGLYQCQSLHGSEADTLRKVLVEVLADPLD
modifications: biotin on the C-terminal BirA biotinylation sequence
B6: TREM2 W78D (receptor)
chain: HNTTVFQGVAGQSLQVSCPYDSMKHWGRRKAWCRQLGEKGPCQRVVSTHNLWLLSFLRRDNGSTAITDDTLGGTLTITLRNLQPHDAGLYQCQSLHGSEADTLRKVLVEVLADPLD
modifications: biotin on the C-terminal BirA biotinylation sequence
B7: TREM2 W44D/L69D/L71D (receptor)
chain: HNTTVFQGVAGQSLQVSCPYDSMKHDGRRKAWCRQLGEKGPCQRVVSTHNDWDLSFLRRWNGSTAITDDTLGGTLTITLRNLQPHDAGLYQCQSLHGSEADTLRKVLVEVLADPLD
modifications: biotin on the C-terminal BirA biotinylation sequence
B8: TREM2 R122E (receptor)
chain: HNTTVFQGVAGQSLQVSCPYDSMKHWGRRKAWCRQLGEKGPCQRVVSTHNLWLLSFLRRWNGSTAITDDTLGGTLTITLRNLQPHDAGLYQCQSLHGSEADTLEKVLVEVLADPLD
modifications: biotin on the C-terminal BirA biotinylation sequence
B9: TREM2 L69D/L71D (receptor)
chain: HNTTVFQGVAGQSLQVSCPYDSMKHWGRRKAWCRQLGEKGPCQRVVSTHNDWDLSFLRRWNGSTAITDDTLGGTLTITLRNLQPHDAGLYQCQSLHGSEADTLRKVLVEVLADPLD
modifications: biotin on the C-terminal BirA biotinylation sequence
B10: TREM2 R46D (receptor)
chain: HNTTVFQGVAGQSLQVSCPYDSMKHWGDRKAWCRQLGEKGPCQRVVSTHNLWLLSFLRRWNGSTAITDDTLGGTLTITLRNLQPHDAGLYQCQSLHGSEADTLRKVLVEVLADPLD
modifications: biotin on the C-terminal BirA biotinylation sequence
B11: TREM2 WT (receptor, human, UniProt Q9NZC2 19-230, looked up)
chain: HNTTVFQGVAGQSLQVSCPYDSMKHWGRRKAWCRQLGEKGPCQRVVSTHNLWLLSFLRRWNGSTAITDDTLGGTLTITLRNLQPHDAGLYQCQSLHGSEADTLRKVLVEVLADPLDHRDAGDLWFPGESESFEDAHVEHSISRSLLEGEIPFPPTS
modifications: biotin on the C-terminal BirA biotinylation sequence
notes: TREM2, human; also called triggering receptor expressed on myeloid cells-2; source: Expi293F cells, purified, enzymatically biotinylated using BirA
B12: TREM2 T96K (receptor, human, UniProt Q9NZC2 19-230, looked up)
chain: HNTTVFQGVAGQSLQVSCPYDSMKHWGRRKAWCRQLGEKGPCQRVVSTHNLWLLSFLRRWNGSTAITDDTLGGTLTIKLRNLQPHDAGLYQCQSLHGSEADTLRKVLVEVLADPLDHRDAGDLWFPGESESFEDAHVEHSISRSLLEGEIPFPPTS
modifications: biotin on the C-terminal BirA biotinylation sequence
notes: TREM2, human, AD risk variant; As m1 with the substitution; source: Expi293F cells, purified, enzymatically biotinylated using BirA
B13: TREM2 R47H (receptor, human, UniProt Q9NZC2 19-230, looked up)
chain: HNTTVFQGVAGQSLQVSCPYDSMKHWGRHKAWCRQLGEKGPCQRVVSTHNLWLLSFLRRWNGSTAITDDTLGGTLTITLRNLQPHDAGLYQCQSLHGSEADTLRKVLVEVLADPLDHRDAGDLWFPGESESFEDAHVEHSISRSLLEGEIPFPPTS
modifications: biotin on the C-terminal BirA biotinylation sequence
notes: as for B12
B14: TREM2 D87N (receptor, human, UniProt Q9NZC2 19-230, looked up)
chain: HNTTVFQGVAGQSLQVSCPYDSMKHWGRRKAWCRQLGEKGPCQRVVSTHNLWLLSFLRRWNGSTAITDNTLGGTLTITLRNLQPHDAGLYQCQSLHGSEADTLRKVLVEVLADPLDHRDAGDLWFPGESESFEDAHVEHSISRSLLEGEIPFPPTS
modifications: biotin on the C-terminal BirA biotinylation sequence
notes: as for B12
B15: TREM2 R62H (receptor, human, UniProt Q9NZC2 19-230, looked up)
chain: HNTTVFQGVAGQSLQVSCPYDSMKHWGRRKAWCRQLGEKGPCQHVVSTHNLWLLSFLRRWNGSTAITDDTLGGTLTITLRNLQPHDAGLYQCQSLHGSEADTLRKVLVEVLADPLDHRDAGDLWFPGESESFEDAHVEHSISRSLLEGEIPFPPTS
modifications: biotin on the C-terminal BirA biotinylation sequence
notes: as for B12

The first assay addresses T2, complement C1q.
T2 construct: source: bought: Complement Technology (Cat#A099); copies: 6 + 6 + 6
Put plainly: BLI; biotinylated TREM2 WT and variants immobilised on SA biosensors; C1q 62.5 – 1000 nM in PBS with 0.1% BSA and 0.005% Tween-20; 1:1 kinetic fits. Particulars: both partners purified.
Consider B1, for which the Kd was 13800 ± 4860 nM.

For B2, the Kd is 110 ± 10 nM.

With B3, the Kd turned out to be 110 ± 10 nM.

Regarding B4, binding was put at a Kd of 820 ± 40 nM.

Another assay has as its target T1, Human IL-34 (19–241). Put plainly: BLI; biotinylated TREM2 WT and variants immobilised on SA biosensors; IL-34 62.5 – 1000 nM in PBS with 0.1% BSA and 0.005% Tween-20; 1:1 kinetic fits. Particulars: both partners purified. For orientation: In BLI a coated tip is dipped into the sample, and binding shifts an interference pattern.
With B5, binding was put at a Kd of 114 ± 4 nM.

B6 had a Kd of 17.2 ± 0.4 nM.

Take B7: the Kd worked out at 25.8 ± 0.3 nM.

In turn, B8 registered a Kd of 29.4 ± 0.4 nM.

B2 returned a Kd of 21.5 ± 0.6 nM. This Kd and that of the molecule before are within 1.5-fold of each other.

B9 returned a Kd of 20.2 ± 0.3 nM.

B3 showed a Kd of 36.6 ± 0.9 nM.

The molecule B10 showed a Kd of 18 ± 0.3 nM.

Turning to B4, the affinity, expressed as Kd, was 18.5 ± 0.3 nM.

B11 came in with a Kd of 16.5 ± 0.2 nM.

In turn, B12 displayed a Kd of 23.7 ± 0.4 nM.

In turn, B13 had a Kd of 79.8 ± 2.4 nM.

As for B14, binding was put at a Kd of 28.4 ± 0.5 nM.

Molecule B15 returned a Kd of 75 nM.
